In patent US20210087556:

Tests used:
[1] = biological target: GST-fusion SMAD3 protein (Sigma-Aldrich Co. LLC.) (UniProt P84022)
[2] = biological target: FLAG-tag-labeled human SMAD3, expressed in LL29 cells from expression vector pEZ-M11 Flag-hSmad3 (UniProt P84022)
FLAG-tag-labeled human SMAD3, expressed in LL29 cells from expression vector pEZ-M11 Flag-hSmad3, sequence (P84022 whole entry, looked up): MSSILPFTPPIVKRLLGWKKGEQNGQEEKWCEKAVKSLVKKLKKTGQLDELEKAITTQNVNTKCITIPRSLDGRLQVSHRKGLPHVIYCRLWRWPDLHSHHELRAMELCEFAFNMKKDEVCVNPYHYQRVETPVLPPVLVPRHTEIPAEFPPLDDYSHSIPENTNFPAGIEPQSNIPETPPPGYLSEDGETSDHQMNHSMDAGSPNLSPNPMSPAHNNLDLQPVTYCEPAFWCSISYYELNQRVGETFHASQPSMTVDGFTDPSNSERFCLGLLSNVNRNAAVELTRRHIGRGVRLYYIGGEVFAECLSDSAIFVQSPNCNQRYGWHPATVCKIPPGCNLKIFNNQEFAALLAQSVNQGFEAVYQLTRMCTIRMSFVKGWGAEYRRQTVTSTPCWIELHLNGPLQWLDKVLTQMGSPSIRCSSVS

His-fusion NEK6 protein (Eurofins Scientific SE), sequence (chain, as listed by the source): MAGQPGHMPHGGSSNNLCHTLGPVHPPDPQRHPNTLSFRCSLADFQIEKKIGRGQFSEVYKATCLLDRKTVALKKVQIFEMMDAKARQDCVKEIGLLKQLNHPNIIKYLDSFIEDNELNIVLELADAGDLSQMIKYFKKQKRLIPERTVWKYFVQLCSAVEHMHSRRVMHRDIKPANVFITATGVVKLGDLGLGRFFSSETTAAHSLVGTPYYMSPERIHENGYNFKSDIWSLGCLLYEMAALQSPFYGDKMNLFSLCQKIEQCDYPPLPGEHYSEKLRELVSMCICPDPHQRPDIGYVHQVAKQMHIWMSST
GST-fusion SMAD3 protein (Sigma-Aldrich Co. LLC.), sequence (P84022 whole entry, looked up, the tested form may be a part): as the sequence (P84022 whole entry, looked up) above

Substance | amount of phosphorylated SMAD3 (Western blot after in vitro kinase reaction with purified proteins) [1] | amount of phosphorylated SMAD3 protein (Western blot of anti-FLAG coimmunoprecipitate) [2]
His-fusion NEK6 protein (Eurofins Scientific SE) | By using NEK6 protein, the amount of phosphorylated SMAD3 was elevated. | 
human NEK6 protein (NIMA-related serine/threonine kinase 6), expressed in LL29 cells from expression vector pEZ-M02 Nek6 |  | transfection of a human NEK6 expression vector caused the amount of phosphorylated SMAD3 protein to be elevated
